The text below walks through data of paper PMC6906530, “Structural studies of the MMP-3 interaction with triple-helical collagen introduce new roles for the enzyme in tissue remodelling” (Scientific Reports, 2019).

The target of series [1] is collagen I (Guinea pig dermis) (Guinea pig).
The next series relates to collagen I. The conditions noted are these: 10:1 molar excess over collagen; cited from earlier work. The text has this: In both models of collagen fibril assembly, a number of MMP-3 binding sites are concealed, consistent with the observed inhibition of fibrillogenesis in the presence of MMP-3 (Fig. 4g).

collagen I (Guinea pig dermis) (Guinea pig), sequence (main, as listed by the source, chain 1 of 2): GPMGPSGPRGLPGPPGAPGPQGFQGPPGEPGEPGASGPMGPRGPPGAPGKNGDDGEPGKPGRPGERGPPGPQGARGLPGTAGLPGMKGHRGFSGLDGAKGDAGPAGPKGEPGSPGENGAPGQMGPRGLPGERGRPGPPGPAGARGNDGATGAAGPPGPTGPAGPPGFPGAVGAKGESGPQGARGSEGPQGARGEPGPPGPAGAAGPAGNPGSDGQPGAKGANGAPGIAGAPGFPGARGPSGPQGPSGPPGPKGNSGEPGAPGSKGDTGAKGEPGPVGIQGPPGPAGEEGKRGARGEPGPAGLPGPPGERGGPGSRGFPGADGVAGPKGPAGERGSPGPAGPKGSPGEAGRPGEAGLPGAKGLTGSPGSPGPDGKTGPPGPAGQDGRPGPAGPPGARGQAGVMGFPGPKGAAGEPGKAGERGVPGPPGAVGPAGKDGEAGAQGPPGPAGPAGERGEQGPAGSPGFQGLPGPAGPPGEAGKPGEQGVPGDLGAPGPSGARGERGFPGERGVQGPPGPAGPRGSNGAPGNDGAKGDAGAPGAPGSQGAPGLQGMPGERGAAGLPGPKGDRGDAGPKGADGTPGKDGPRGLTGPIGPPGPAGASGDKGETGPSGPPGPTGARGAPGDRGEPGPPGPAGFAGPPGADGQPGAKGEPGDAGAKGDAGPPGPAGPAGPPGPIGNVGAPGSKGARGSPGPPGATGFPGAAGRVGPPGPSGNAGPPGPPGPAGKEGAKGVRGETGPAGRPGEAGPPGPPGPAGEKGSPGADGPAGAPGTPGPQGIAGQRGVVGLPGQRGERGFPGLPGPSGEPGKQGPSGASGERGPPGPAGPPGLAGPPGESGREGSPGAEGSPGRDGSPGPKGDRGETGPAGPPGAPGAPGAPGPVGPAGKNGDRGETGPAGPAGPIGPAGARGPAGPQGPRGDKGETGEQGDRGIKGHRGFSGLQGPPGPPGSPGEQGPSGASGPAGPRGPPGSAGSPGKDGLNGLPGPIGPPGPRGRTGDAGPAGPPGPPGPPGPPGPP
collagen I (Guinea pig dermis) (Guinea pig), sequence (partner, as listed by the source, chain 2 of 2): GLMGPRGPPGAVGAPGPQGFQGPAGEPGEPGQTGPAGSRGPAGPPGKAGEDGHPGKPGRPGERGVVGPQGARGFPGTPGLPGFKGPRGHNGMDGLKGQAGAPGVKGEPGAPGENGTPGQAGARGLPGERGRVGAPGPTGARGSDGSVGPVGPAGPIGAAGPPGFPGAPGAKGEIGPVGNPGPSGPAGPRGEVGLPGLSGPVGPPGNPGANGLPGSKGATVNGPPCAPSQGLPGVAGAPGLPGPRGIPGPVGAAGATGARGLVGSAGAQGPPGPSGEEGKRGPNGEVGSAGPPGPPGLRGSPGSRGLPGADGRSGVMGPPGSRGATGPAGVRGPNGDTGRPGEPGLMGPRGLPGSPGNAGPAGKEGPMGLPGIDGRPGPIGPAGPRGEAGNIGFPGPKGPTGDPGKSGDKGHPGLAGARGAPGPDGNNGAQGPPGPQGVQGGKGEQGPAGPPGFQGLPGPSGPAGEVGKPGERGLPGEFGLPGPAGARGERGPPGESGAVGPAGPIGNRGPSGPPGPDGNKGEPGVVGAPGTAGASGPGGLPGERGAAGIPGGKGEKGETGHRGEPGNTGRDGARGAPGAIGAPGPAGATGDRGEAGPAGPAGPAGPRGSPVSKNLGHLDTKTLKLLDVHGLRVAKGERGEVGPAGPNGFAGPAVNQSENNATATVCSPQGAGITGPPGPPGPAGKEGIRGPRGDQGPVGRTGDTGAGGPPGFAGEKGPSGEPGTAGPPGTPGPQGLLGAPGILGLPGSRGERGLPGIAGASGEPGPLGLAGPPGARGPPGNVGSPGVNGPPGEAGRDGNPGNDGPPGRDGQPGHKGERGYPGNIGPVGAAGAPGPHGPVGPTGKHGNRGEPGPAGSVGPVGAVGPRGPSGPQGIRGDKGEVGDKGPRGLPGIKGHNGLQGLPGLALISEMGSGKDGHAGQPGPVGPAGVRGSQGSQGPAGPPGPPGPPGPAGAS

“mature MMP-3(E200A) (from UniProt P08254 100-477) (enzyme)”: the collagen I fibrillogenesis by turbidity at 500 nm, 37 °C, 1 μM fibrillogenesis-competent collagen I (with telopeptides) with increasing MMP-3(E200A); delay at a ratio of 0.5:1 to collagen I in series [1] was 50 min.

B1: SPARC: matricellular calcium binding protein, secreted protein acidic and rich in cysteine (protein, UniProt P09486 18-303, looked up)
SPARC: APQQEALPDETEVVEETVAEVTEVSVGANPVQVEVGEFDDGAEETEEEVVAENPCQNHHCKHGKVCELDENNTPMCVCQDPTSCPAPIGEFEKVCSNDNKTFDSSCHFFATKCTLEGTKKGHKLHLDYIGPCKYIPPCLDSELTEFPLRMRDWLKNVLVTLYERDEDNNLLTEKQKLRVKKIHENEKRLEAGDHPVELLARDFEKNYNMYIFPVHWQFGQLDQHPIDGYLSHTELAPLRAPLIPMEHCTTRFFETCDLDNDKYIALDEWAGCFGIKQKDIDKDLVI
As to B1, the “Delay of collagen fibrillogenesis relative to MMP-3(E200A)” value in the series with collagen I is recorded as “comparably”.
